Data set [1] deals with MBP-EcMinC-Aahelix3 (E. coli | A. aeolicus) (UniProt P18196). The experiment in a line: SEC-MALS; MALLS and SEC (Fig. S4). A general note: Size exclusion chromatography separates by hydrodynamic size, large species first.
Data set [2] deals with the molecule itself. The experiment in a line: SEC-MALS; MALLS and SEC (Fig. S4).
Data set [3] concerns the molecule itself. The data set is described as follows: crystal structure; hanging-drop vapor diffusion at 20 °C, 0.1 M Tris-HCl pH 7.2, 0.44 M sodium/potassium tartrate; 3.0 Å; dimer in the asymmetric unit.

Consider “MBP-EcMinC-Aahelix3 (from UniProt P18196 1-231; O67034 82-201)”, for which the stoichiometry N (usually a count of units in the complex or per binding partner) in data set [1] turned out to be 2.

B1: MBP-EcMinC (natural protein, E. coli, UniProt P18196 1-231, looked up)
chain: MSNTPIELKGSSFTLSVVHLHEAEPKVIHQALEDKIAQAPAFLKHAPVVLNVSALEDPVNWSAMHKAVSATGLRVIGVSGCKDAQLKAEIEKMGLPILTEGKEKAPRPAPTPQAPAQNTTPVTKTRLIDTPVRSGQRIYAPQCDLIVTSHVSAGAELIADGNIHVYGMMRGRALAGASGDRETQIFCTNLMAELVSIAGEYWLSDQIPAEFYGKAARLQLVENALTVQPLN
notes: called full-length EcMinC; Modified pET-28b with MBP in place of the N-terminal His-tag; source: E. coli BL21(DE3), purified (Ni-agarose, SEC); not shown: MBP, N-terminal, kept
On to B1, for which the “stoichiometry N” value in data set [2] came out at 2.

B2: C-terminal domain of MinC from Escherichia coli (EcMinCCTD) (domain or fragment, E. coli)
chain: PVTKTRLIDTPVRSGQRIYAPQCDLIVTSHVSAGAELIADGNIHVYGMMRGRALAGASGDRETQIFCTNLMAELVSIAGEYWLSDQIPAEFYGKAARLQLVENALTVQPLN
notes: MinC, E. coli K12; C-terminal domain, a degradation fragment of ~13 kD of full-length MinC-6xHis; residues 122-231 are named for the superposition with TmMinCCTD; Crystals grew from full-length MinC-6xHis (pET22b-MinC) that was degraded over 3-6 weeks; source: E. coli BL21(DE3), full-length MinC-6xHis purified (Ni-agarose, SEC); degraded to the C-terminal domain during crystallization; not shown: …
With B2, in data set [3], the binding result is given as “binds”.

The values are drawn from article PMC5548801, “Characterization of C-terminal structure of MinC and its implication in evolution of bacterial cell division” (Scientific Reports, 2017).
